# Data: article PMC8629194 (bioRxiv, 2021)
# B1: SARS-CoV RBD (residue 306–577) (domain or fragment)
# chain: not shown
# Target: wt ACE2_(615)-Fc (M27) (human, UniProt Q9BYF1 18-615)
# Assay: SPR
# Sequence of wt ACE2_(615)-Fc (M27) (Q9BYF1 18-615): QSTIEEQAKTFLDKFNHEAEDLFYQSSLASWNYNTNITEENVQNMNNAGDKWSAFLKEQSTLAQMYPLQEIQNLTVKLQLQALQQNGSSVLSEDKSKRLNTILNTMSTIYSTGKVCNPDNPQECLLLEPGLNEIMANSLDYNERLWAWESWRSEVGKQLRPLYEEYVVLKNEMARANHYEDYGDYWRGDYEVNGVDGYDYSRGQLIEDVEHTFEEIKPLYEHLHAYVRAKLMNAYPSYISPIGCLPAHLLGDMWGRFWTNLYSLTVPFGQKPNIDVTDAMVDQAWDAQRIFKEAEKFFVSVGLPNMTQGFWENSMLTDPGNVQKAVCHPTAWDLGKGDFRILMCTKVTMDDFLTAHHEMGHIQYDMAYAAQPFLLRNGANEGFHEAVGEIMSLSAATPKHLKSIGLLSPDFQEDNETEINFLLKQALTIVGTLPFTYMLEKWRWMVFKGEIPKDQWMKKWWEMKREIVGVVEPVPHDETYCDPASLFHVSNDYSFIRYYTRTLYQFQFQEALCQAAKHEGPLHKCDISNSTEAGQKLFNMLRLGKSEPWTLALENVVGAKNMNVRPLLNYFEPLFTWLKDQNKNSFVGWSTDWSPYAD
binder,measurement,value
B1,"fold, affinity of RBDwt for M27 over that of SARS-CoV-1 RBD",~5 fold
